Assay in all cases: co-IP
For one assay, the target named is T1, GpsB-L-FLAG^3 (Streptococcus pneumoniae (strain D39 …, UniProt Q8DR57 1-109)).
T1 sequence: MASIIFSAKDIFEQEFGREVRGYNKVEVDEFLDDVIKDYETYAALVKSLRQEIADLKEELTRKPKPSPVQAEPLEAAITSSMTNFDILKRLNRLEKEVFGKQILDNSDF

In a further assay the target is T2, StkP-FLAG^2 (Streptococcus pneumoniae (strain D39 …, UniProt Q8DNS0 1-659)).
T2 sequence: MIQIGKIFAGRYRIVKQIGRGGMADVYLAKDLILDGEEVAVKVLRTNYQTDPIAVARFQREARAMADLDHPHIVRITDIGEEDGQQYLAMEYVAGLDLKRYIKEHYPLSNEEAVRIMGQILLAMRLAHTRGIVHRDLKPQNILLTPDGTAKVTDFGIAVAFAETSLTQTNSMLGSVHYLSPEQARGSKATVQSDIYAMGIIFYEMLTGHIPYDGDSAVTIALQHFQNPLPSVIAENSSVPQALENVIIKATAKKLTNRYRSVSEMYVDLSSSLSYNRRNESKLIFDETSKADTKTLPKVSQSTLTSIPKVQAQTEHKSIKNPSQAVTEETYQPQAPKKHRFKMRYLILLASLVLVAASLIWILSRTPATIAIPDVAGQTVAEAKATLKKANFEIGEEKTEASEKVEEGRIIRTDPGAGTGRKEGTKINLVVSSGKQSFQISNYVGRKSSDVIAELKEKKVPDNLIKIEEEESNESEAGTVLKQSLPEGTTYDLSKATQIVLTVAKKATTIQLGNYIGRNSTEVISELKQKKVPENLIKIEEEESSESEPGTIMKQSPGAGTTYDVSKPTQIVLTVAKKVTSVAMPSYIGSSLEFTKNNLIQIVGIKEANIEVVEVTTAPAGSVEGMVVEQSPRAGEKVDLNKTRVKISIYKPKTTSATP

The next assay addresses T3, EzrA-L-FLAG^3 (Streptococcus pneumoniae (strain D39 …, UniProt Q8DQE5 1-575)).
T3 sequence: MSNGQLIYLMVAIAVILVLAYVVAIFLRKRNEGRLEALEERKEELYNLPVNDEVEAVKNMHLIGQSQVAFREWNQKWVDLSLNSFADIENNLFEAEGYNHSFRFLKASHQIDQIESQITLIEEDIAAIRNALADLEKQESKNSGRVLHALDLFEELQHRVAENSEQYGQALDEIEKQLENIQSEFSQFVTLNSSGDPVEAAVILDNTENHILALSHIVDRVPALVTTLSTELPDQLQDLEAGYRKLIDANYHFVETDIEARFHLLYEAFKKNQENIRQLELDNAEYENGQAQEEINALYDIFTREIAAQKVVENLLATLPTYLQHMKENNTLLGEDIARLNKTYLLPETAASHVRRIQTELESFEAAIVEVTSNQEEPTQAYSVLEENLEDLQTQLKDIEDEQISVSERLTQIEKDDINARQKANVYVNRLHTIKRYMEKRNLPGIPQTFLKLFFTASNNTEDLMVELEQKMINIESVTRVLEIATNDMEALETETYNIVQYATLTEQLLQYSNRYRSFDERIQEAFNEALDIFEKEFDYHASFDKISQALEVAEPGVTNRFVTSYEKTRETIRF

B1: MreC (natural protein)
chain: MNRFKKSKYVIIVFVTVLLVSALLATTYSSTIVTKLGDGISLVDRVVQKPFQWFDSVKSDLAHLTRTYNENESLKKQLYQLEVKSNEVESLKTENEQLRQLLDMKSKLQATKTLAADVIMRSPVSWKQELTLDAGRSKGASENMLAIANGGLIGSVSKVEENSTIVNLLTNTENADKISVKIQHGSTTIYGIIIGYDKENDVLKISQLNSNSDISAGDKVTTGGLGNFNVADIPVGEVVATTHSTDYLTREVTVKLSADTHNVDVIELVGNS
For B1, the “ratio of prey protein band, GpsB-L-FLAG^3 bait to GpsB^+ control” value (“ratio … to GpsB^+ control” below) with GpsB-L-FLAG^3 was found to be 6.2 ratio. Further, the “ratio of prey protein band, StkP-FLAG^2 bait to StkP^+ control” value (shortened to “ratio … to StkP^+ control”) with StkP-FLAG^2 was 8.5 ratio.

B2: FtsZ-Myc (natural protein)
chain: MTFSFDTAAAQGAVIKVIGVGGGGGNAINRMVDEGVTGVEFIAANTDVQALSSTKAETVIQLGPKLTRGLGAGGQPEVGRKAAEESEETLTEAISGADMVFITAGMGGGSGTGAAPVIARIAKDLGALTVGVVTRPFGFEGSKRGQFAVEGINQLREHVDTLLIISNNNLLEIVDKKTPLLEALSEADNVLRQGVQGITDLITNPGLINLDFADVKTVMANKGNALMGIGIGSGEERVVEAARKAIYSPLLETTIDGAEDVIVNVTGGLDLTLIEAEEASQIVNQAAGQGVNIWLGTSIDESMRDEIRVTVVATGVRQDRVEKVVAPQARSATNYRETVKPAHSHGFDRHFDMAETVELPKQNPRRLEPTQASAFGDWDLRRESIVRTTDSVVSPVERFEAPISQDEDELDTPPFFKNR
Take B2: the “ratio of prey protein band, EzrA-L-FLAG^3 bait to EzrA^+ control” value with EzrA-L-FLAG^3 is 15 ratio.

B3: bPBP2b-HA (enzyme)
chain: MRKFNSHSIPIRLNLLFSIVILLFMTIIGRLLYMQVLNKDFYEKKLASASQTKITSSSARGEIYDASGKPLVENTLKQVVSFTRSNKMTATDLKETAKKLLTYVSISSPNLTERQLADYYLADPEIYKKIVEALPSEKRLDSDGNRLSESELYNNAVDSVQTSQLNYTEDEKKEIYLFSQLNAVGNFATGTIATDPLNDSQVAVIASISKEMPGISISTSWDRKVLETSLSSIVGSVSSEKAGLPAEEAEAYLKKGYSLNDRVGTSYLEKQYEETLQGKRSVKEIHLDKYGNMESVDTIEEGSKGNNIKLTIDLAFQDSVDALLKSYFNSELENGGAKYSEGVYAVALNPKTGAVLSMSGIKHDLKTGELTPDSLGTVTNVFVPGSVVKAATISSGWENGVLSGNQTLTDQSIVFQGSAPINSWYTQAYGSFPITAVQALEYSSNTYMVQTALGLMGQTYQPNMFVGTSNLESAMEKLRSTFGEYGLGTATGIDLPDESTGFVPKEYSFANYITNAFGQFDNYTPMQLAQYVATIANNGVRVAPRIVEGIYGNNDKGGLGDLIQQLQPTEMNKVNISDSDMSILHQGFYQVAHGTSGLTTGRAFSNGALVSISGKTGTAESYVADGQQATNTNAVAYAPSDNPQIAVAVVFPHNTNLTNGVGPSIARDIINLYQKYHPMN
Take B3: in the assay with GpsB-L-FLAG^3, the “ratio … to GpsB^+ control” value turned out to be 18.3 ratio. Further, the “ratio … to StkP^+ control” value with StkP-FLAG^2 is 8.1 ratio.

B4: bPBP2x-HA (enzyme)
chain: MKWTKRVIRYATKNRKSPAENRRRVGKSLSLLSVFVFAIFLVNFAVIIGTGTRFGTDLAKEAKKVHQTTRTVPAKRGTIYDRNGVPIAEDATSYNVYAVIDENYKSATGKILYVEKTQFNKVAEVFHKYLDMEESYVREQLSQPNLKQVSFGAKGNGITYANMMSIKKELEAAEVKGIDFTTSPNRSYPNGQFASSFIGLAQLHENEDGSKSLLGTSGMESSLNSILAGTDGIITYEKDRLGNIVPGTEQVSQRTMDGKDVYTTISSPLQSFMETQMDAFQEKVKGKYMTATLVSAKTGEILATTQRPTFDADTKEGITEDFVWRDILYQSNYEPGSTMKVMMLAAAIDNNTFPGGEVFNSSELKIADATIRDWDVNEGLTGGRTMTFSQGFAHSSNVGMTLLEQKMGDATWLDYLNRFKFGVPTRFGLTDEYAGQLPADNIVNIAQSSFGQGISVTQTQMIRAFTAIANDGVMLEPKFISAIYDPNDQTARKSQKEIVGNPVSKDAASLTRTNMVLVGTDPVYGTMYNHSTGKPTVTVPGQNVALKSGTAQIADEKNGGYLVGLTDYIFSAVSMSPAENPDFILYVTVQQPEHYSGIQLGEFANPILERASAMKDSLNLQTTAKALEQVSQQSPYPMPSVKDISPGDLAEELRRNLVQPIVVGTGTKIKNSSAEEGKNLAPNQQVLILSDKAEEVPDMYGWTKETAETLAKWLNIELEFQGSGSTVQKQDVRANTAIKDIKKITLTLGD
Regarding B4, in the assay with StkP-FLAG^2, the “ratio … to StkP^+ control” value was found to be 3.4 ratio.

B5: EzrA-HA (natural protein)
chain: T3 sequence
For the molecule B5, in the assay with GpsB-L-FLAG^3, the “ratio … to GpsB^+ control” value was determined as 5.4 ratio.

B6: aPBP2a-HA^4 (enzyme)
chain: MKLDKLFEKFLSLFKKETSELEDSDSTILRRSRSDRKKLAQVGPIRKFWRRYHLTKIILILGLSAGLLVGIYLFAVAKSTNVNDLQNALKTRTLIFDREEKEAGALSGQKGTYVELTDISKNLQNAVIATEDRSFYKNDGINYGRFFLAIVTAGRSGGGSTITQQLAKNAYLSQDQTVERKAKEFFLALELSKKYSKEQILTMYLNNAYFGNGVWGVEDASKKYFGVSASEVSLDQAATLAGMLKGPELYNPLNSVEDSTNRRDTVLQNMVAAGYIDKNQETEAAEVDMTSQLHDKYEGKISDYRYPSYFDAVVNEAVSKYNLTEEEIVNNGYRIYTELDQNYQANMQIVYENTSLFPRAEDGTFAQSGSVALEPKTGGVRGVVGQVADNDKTGFRNFNYATQSKRSPGSTIKPLVVYTPAVEAGWALNKQLDNHTMQYDSYKVDNYAGIKTSREVPMYQSLAESLNLPAVATVNDLGVDKAFEAGEKFGLNMEKVDRVLGVALGSGVETNPLQMAQAYAAFANEGLMPEAHFISRIENASGQVIASHKNSQKRVIDKSVADKMTSMMLGTFTNGTGISSSPADYVMAGKTGTTEAVFNPEYTSDQWVIGYTPDVVISHWLGFPTTDENHYLAGSTSNGAAHVFRNIANTILPYTPGSTFTVENAYKQNGIAPANTKRQVQTNDNSQTDDNLSDIRGRAQSLVDEASRAISDAKIKEKAQTIWDSIVNLFR
In the case of B6, the “ratio … to GpsB^+ control” value with GpsB-L-FLAG^3 is 4 ratio.

These data come from paper PMC5344783 (Molecular microbiology, 2017).
